Test results from the DeepSol protein solubility set.

Assay: soluble on expression in E. coli; label from the status in PepcDB or PDB records

Sequence	soluble on expression in E. coli
MFKRVHLIVLDSVGIGEAPDAEKFGDVGSDTLGHIAKEAGLTIPHLEKLGLGTIAPLTGVKAVADHDGYATKLEEISVGKDTMTGHWEIMGLNIKKPFRVFPNGFPEELLKQIEDFSGRKVVCNKPYSGTAVIDDYGEHQMKTGDLIVYTSADPVLQIAAHEDIIPLEELYKICQYVRDITKDEPYMIGRIIARPYVGEPGNFTRTSNRHDYALDPFGHTVLDSLKENGNDVIAVGKINDIFNGQGITEAIRTKSNMDGVDQLLTVMNKEFTGLSFTNLVDFDALYGHRRDVKGYAKAIEDFDGRLPEIMAAMAEDDLLLITADHGNDPTFPGTDHTREYVPLLAYSKKMTKQGSLPQGFYSDISATIAENFEVPATENGQSFLNQLQ	not soluble
MGSDKIHHHHHHMQIISHRGYWLHKPERNLTQAFHRSFDFGFGTETDVRDVAGQLVISHDMPVGGELTLDGLLDIMAGRNLPLAINVKADGMALALKKTFARYGHTNWFVFDMAVPDMRSYLIEEVITYSRLSDVEPSPAWLERATGVWLDGFDSEWFSNQVIGDLLSQDKQVCVVSPELHGRDCMALWQQLLEFRSENRLTLCTDTPVDAAIFFK	not soluble
MAHHHHHHMLSQNVAKTTVPSYYMIRTNLPQRKPQNQWEGVYYFGGITKRQRHLILLQRKREREARMRAFSASCSNLLRLLEGDTQEQQQAKTQTIQLSSPHGPFDLAIRLAQHGLYQQASRIVDELHQQRALRMSHYGLLIDALSAPCLGQRILYGSAQCDPALTYKLLGDENGEERAQEAHRWFDMAFALLTTECRMSGSEHRLPQATAAATHLVNALMRALLTCGYTHVSAVPDAVYDRMGLMGISPTISTYELVMLALSLQGNMKEAESVFSFLRRHHNEHVTIGSFNALLLGHRECRQFDRCDAIWQELVDRRWPRASTLTAELYLRSIVDHSYTPTSGPLQRFGNINVVEKKKIPLVLAQMDDLGIPRAHLSRPLMDEVEDALRKFHIYKSRYYEWGRAVKQFNFIEFRRRNGWMYDLHLMKNTTKQVGPLRDFNQPDATQAPVATVEIPAFFNERPAWEQPPLEETLYVTESRERYDDVRSGDIYEDRTRSLHDRSPTWMNEVPETRYDHLYGVNHPDIAKIGIRRHLNAEYVNRKEVVERDAALMKKNLSTGRRLRRKVESSRTHRNAGSMSGAAPASASR	not soluble
MTEEIVELVLRERISPLLRSHGGDLSLSQIKDKTVFVRFSGACRFCPAAHETVEKIVQAMIREYFKDDNIDVILENSVSDDLLEQAKNILRKPK	not soluble
MVKRRNLLHFNNGARSERDLGDLVTKVFEKAAKKEPQPLYTFSLPLLSVQDEIRVYCKKKNIKIGYDTLFMEITFSADREAVDELIKHFFTENKLYLRGRFYLSAAVV	not soluble
MKHHHHHPMVPSYDSFDSEDYPAALPNHKPKGTFKDYVRDRADLNKDKPVIPAAALAGYTGSGPIQLWQFLLELLTDKSSQSFISWTGDGWEFKLSDPDEVARRWGKRKNKPKMNYEKLSRGLRYYYDKNIIHKTAGKRYVYRFVSDLQSLLGYTPEELHAMLDVKPDADE	soluble
MLRGGVNDCKIKWEFLIGNSIDSSPILAKNGTIYLGSSNKNLYAINTDGSVKWFFKSGEIIECRPSIGKDGTIYFGSDKVYAINPDGTEKWRFDTKKAIVSDFTIFEDILYVTSMDGHLYAINPDGTEKWRFKTKKAIYATPIVSEDGTIYVGSNDNYLYAINPDGTEKWRFKTNDAITSAASIGKDGTIYFGSDKVYAINPDGTEKWNFYAGYWTVTRPAISEDGTIYVTSLDGHLYAINPDGTEKWRFKTGKRIESSPVIGNTDTIYFGSYDGHLYAINPDGTEKWNFETGSWIIATPVIDENGTIYFGTRNGKFYALFNLEHHHHHH	soluble
SMSDVTIVKEGWVQKRGEYIKNWRPRYFLLKTDGSFIGYKEKPQDVDLPYPLNNFSVAKCQLMKTERPKPNTFIIRCLQWTTVIERTFHVDTPEEREEWTEAIQAVADRLQRQEEERMN	soluble
MSSDTGSEYLDEEIRGDELGPSIDDNALAAAASAARLPFDRPTDHELAFFPELWEHKTAVEVFLLLRNSTLATWQYNPLKECTALDVRNNVFPPFNSDLDLIQNIVHYLSRHGLINFGRYVRSTKISRFLVRDRRSVIVIGAGAAGISAATQLESFGFDVIVLEARNCIGGRIHSFKSKSGEIMETGGDTLRKIEDSPMATLLHQVNFEEHGVFDFTSVFVEGRPLNEEKIHLFLDHYKSAHGALNYQAHQCEHRDDQGSFISRQQAYENLLSMCERGTLIKYYNFCKSLETVARAREHHFNQMKQLRMTALMAENQLKKMEEEGNLEQDPVLRRSLKRDIATSLEKFEEVADAFETADNHWQRLNEHPQAKQYMHPGSEFATFNFMLGFEEYLVGAQLEKVQFSCDSMQNKENGVAARLTEGIAELLTQLSEKRKLDIRLKHRVLDIDYSGFEHVLLKVQRENGDIEEMKAAFVVSTLPIGVLKKTIIADERAPTFTPSLPDKKVEAIRNIGCGSVNKCILEFDRVFWTANGGRNQFVTVSPNIKTRGSMNIWSSVPGSKVLCTYIVGEEAMLELPDDVIIQNAMINLQKAFGNNCPRAPISAHITRWHDDELAFGSGAFMSLRTETTSFDDVMEPLKTSDGMSRVYFAGEHTCSSYTSTIQGAWMSGARAAADISNDHIGIGFVDISGTRGQRGDEEEELLIEVDIDGKIPEKDENEAVADIPNAPNAPNAQKPEEIPKIAEEIELVAEAEKAEKAEVQLEPLVPTVE	not soluble
MRFERFVGIDPSLRTGFVALSPFGEVIEAKEIEKEGDDPARMSKLIQVVVDSVHDTDFVAIEGFGYASQRGFLLGGIGWGMRMELYRRGIPYIDVAPSLLKKFAGAKGNANKEKVVLEVYKRWGFESDSNNVIDAFVLAQIARAAKTETKLIQAQKEVLNKLFK	not soluble
MKEENVGDFTLHYGVFEEVEPEELRNLADMLRQRTKKDVVFIASRKGDKINFVIGVSKEISDKVNAKEVIREVGKVLKGGGGGRADLAQGGGKAPDKFPEAVKLLKEILSG	soluble
MSLVMSDTLNSLQLGERPEGRTLLTASWVVGHKDGSHRLLKNGEVVFENGEILFVGHGFPGEVARRIDFGNALVSPGLIDLDALSDLDTTILGIDHHPGWAKGRVWPRSYVEAGPYEMYSAEELAFQKRFAFGQLLLNGITTAAPIASLFYRAWGETVAEFEAAADAAGELGLRVYLSPAFRSGGMVLEEPGRMFPVFDEERGFQGLKEAIAFIEKQSGRHGDLVRGMLAPDRVETSTLGLIERTDAAARELGCKFRLHMAQGVMEVDTVRKLHGSTAPVWLAKAGLLSERLIAPHATNATEEDLALYAENGVSIVHCPLVSSRGGSTLSSFSSCRKRGINIAMGTDTAPADMFMNLLVGLITCRINDGAPDQIRCADLFDAATLGGARALGRSDLGHLSSGARADIAVFDLDDAVMAPSVDPITTLVTGGSGKVTRAVFVDGRLSMRERQVAHIDMRRAREQAQAQFDRLIAKYPERSWANPPVSEIFPPSYQVEVAQHGEGHHHHHH	soluble
MRAVRLVEIGKPLSLQEIGVPKPKGPQVLIKVEAAGVCHSDVHMRQGRFGNLRIVEDLGVKLPVTLGHEIAGKIEEVGDEVVGYSKGDLVAVNPLQGEGNCYYCRIGEEHLCDSPRWLGINFDGAYAEYVIVPHYKYMYKLRRLNAVEAAPLTCSGITTYRAVRKASLDPTKTLLVVGAGGGLGTMAVQIAKAVSGATIIGVDVREEAVEAAKRAGADYVINASMQDPLAEIRRITESKGVDAVIDLNYSEKTLSVYPKALAKQGKYVMVGLFGADLHYHAPLITLSEIQFVGSLVGNQSDFLGIMRLAEAGKVKPMITKTMKLEEANEAIDNLENFKAIGRQVLIP	soluble
DIQMTQSPSSLSASVGDRVTITCRTSGNIHNYLTWYQQKPGKAPQLLIYNAKTLADGVPSRFSGSGSGTQFTLTISSLQPEDFANYYCQHFWSLPFTFGQGTKVEIKRTGGGGSGGGGSGGGGSGGGGSEVQLVESGGGLVQPGGSLRLSCAASGFDFSRYDMSWVRQAPGKRLEWVAYISSGGGSTYFPDTVKGRFTISRDNAKNTLYLQMNSLRAEDTAVYYCARQNKKLTWFDYWGQGTLVTVSSHHHHHH	soluble
MGHHHHHHSHMGNNSESKGSASDSKGAETFTYKAENGNVKIPKHPKRVVVMADGYYGYFKTLGINVVGAPENVFKNPYYKGKTNGVENIGDGTSVEKVIDLNPDLIIVWTTQGADIKKLEKIAPTVAVKYDKLDNIEQLKEFAKMTGTEDKAEKWLAKWDKKVAAAKTKIKKAVGDKTISIMQTNGKDIYVFGKDFGRGGSIIYKDLGLQATKLTKEKAIDQGPGYTSISLEKLPDFAGDYIFAGPWQSGGDDGGVFESSIWKNLNAVKNGHVYKMDPIGFYFTDPISLEGQLEFITESLTK	soluble
MGSDKIHHHHHHMKNIIGILGVFILAISCSGGKKESADAGLELTEDSVVYLLADNVTLGIKALFPFIDKDGHEYLTFQNQLEPEICVYDLQSGEFVKSIFFDREGANGVGMFGGYHIIDFDEIYLPSLQQSKVFVMEESGKKKREIITEKTDDGIPLLPFGAITFAYRPIYFNNGKMYIPQTVNMRLGNKVMEKSPVYVVVDTVKNVLSPFSIKFPPIMSSDDVTKPSLGNELSYSCCLNDKDQFVFSFFFDEDIYVVSLQDGEMKKIKVKSRYIDKPAIKENPPQDFDGAMKASSEIPCYGNLIYDKYRKVYYRFVYLKADLDGEKNYLNIWQYGRKSFSIMILNEDFDVIGETRFPDFTYISTLHYIGKDGLYLSDSHYKNPSFDENKLRFRRFKLVHYNKK	not soluble
MSLKYEYCPICGKKLEKKYSYDEGDVPYCQKDKIMFFDVPKPCVLVAVIKGQEILLLKQEYTFKDSKILVSGYVANGETVEETVVREVKEEVGIIVEKPEYLGSYYFKPKELIMLTFMVRYVSGEITKSQEVDEAYWVNMRDVLQEMNEDKVGKDVVKKVFKRIGYNEEKYLHKEGHHHHHH	not soluble
MEKSAGRGRPSVSVERIVATALEAVDEVGAQAFNMRMLAERLGSGTATLYRHFASKDEILIYVVDSVLGELLADQPEAVELVPQGQGSEGYSWQKACASGAERLYGVLRRHPGILPLLVSQIPIGPNGLKRREQGIALFLANGFPAELAARAYTSVAHYVLGFAIQQHSSASSEAAEGEELVEFFAALDASEYPAIATAGRHLPGISVEEEFRFGLKLIIDGLELAASAWRKADGC	not soluble
MRYWLMKSEPSEVSIDDLAARPGQTVPWDGVRNYQARNFMRNQMQPGDLVFFYHSSCPEPGIAGVVEVSRLAYPDETQFDSASKYFDPKSTRENPRWFNVEVRFLRKTRLLSLRELRSYPELAGMRILQKGNRLSITPVDPSEWKFIEAKLQSLEHHHHHH	not soluble
SEVRWCATSDPEQHKCGNMSEAFREAGIQPSLLCVRGTSADHCVQLIAAQEADAITLDGGAIYEAGKEHGLKPVVGEVYDQEVGTSYYAVAVVRRSSHVTIDTLKGVKSCHTGINRTVGWNVPVGYLVESGRLSVMGCDVLKAVSDYFGGSCVPGAGETSYSESLCRLCRGDSSGEGVCDKSPLERYYDYSGAFRCLAEGAGDVAFVKHSTVLENTDGKTLPSWGQALLSQDFELLCRDGSRADVTEWRQCHLARVPAHAVVVRADTDGGLIFRLLNEGQRLFSHEGSSFQMFSSEAYGQKDLLFKDSTSELVPIATQTYEAWLGHEYLHAMKGLLCDPNRLPPYLRWCVLSTPEIQKCGDMAVAFRRQRLKPEIQCVSAKSPQHCMERIQAEQVDAVTLSGEDIYTAGKKYGLVPAAGEHYAPEDSSNSYYVVAVVRRDSSHAFTLDELRGKRSCHAGFGSPAGWDVPVGALIQRGFIRPKDCDVLTAVSEFFNASCVPVNNPKNYPSSLCALCVGDEQGRNKCVGNSQERYYGYRGAFRCLVENAGDVAFVRHTTVFDNTNGHNSEPWAAELRSEDYELLCPNGARAEVSQFAACNLAQIPPHAVMVRPDTNIFTVYGLLDKAQDLFGDDHNKNGFKMFDSSNYHGQDLLFKDATVRAVPVGEKTTYRGWLGLDYVAALEGMSSQQC	soluble
